From publication PMC9045774, “The prominent role of a CDR1 somatic hypermutation for convergent IGHV3-53/3-66 antibodies in binding to SARS-CoV-2” (Emerging Microbes & Infections, 2022)

Biological target: T1, SARS-CoV-2 receptor-binding domain (RBD) (SARS-CoV-2, ancestral (Wuhan-Hu-1) …, UniProt P0DTC2)
T1 construct: also called SARS-CoV-2 RBD
Assay: not stated; binding affinities of the residue-27 germline revertants of BD-236, COVOX-222 and CV30 (supplementary Fig. S5); method not named in the sentence (BLI in the experiments around it)

| Binder | fold decrease of affinity against COVOX-222 [fold] | fold decrease of affinity against BD-236 [fold] |
| --- | --- | --- |
| COVOX-222, germline format at residue 27 (reverse mutation) (antibody, V domains shown, as the heavy chain of m12 (PDB 7NX6) with residue 27 reverted to the germline F; as the light chain of m12; also called germline format of COVOX-222) VH: EVQLVESGGGLIQPGGSLRLSCAASGFTVSSNYMSWVRQAPGKGLEWVSVIYSGGSTFYADSVKGRFTISRDNSKNTLYLQMNSLGAEDTAVYYCARGEGSPGNWFDPWGQGTLVTVSS VL: DVVMTQSPGTLSLSPGERATLSCRASQSVPSSYLAWYQQKPGQAPRLLIYGASTRATGIPDRFSGSGSGTDFTLTISRLEPEDFAVYYCQHYDTSPRFGGGTKVDIK | 2.02 |  |
| BD-236, germline format at residue 27 (reverse mutation) (antibody, V domains shown, as the heavy chain of m10 (PDB 7CHB) with residue 27 reverted to the germline F; as the light chain of m10) VH: EVQLVESGGGLIQPGGSLRLSCAASGFTVSSNYMSWVRQAPGKGLEWVSVIYSGGSTDYADSVKGRFTISRDKSKNTLYLQMNSLRAEDTAVYYCARDLGEAGGMDVWGQGTTVTVSS VL: AIQLTQSPSSLSASVGDRVTITCRASQGISSYLAWYQQKPGKAPKLLIYAASTLQSGVPSRFSGSGSGTDFTLTISSLQPEDFATYYCQQLNSYPPAFGGGTKVEIK |  | 1.37 |
